Consider one molecule from US20230125561A1 (published 2023).

The experiment concerns the target SARS-CoV-2 Spike S1 protein, B.1.351 (S. African) variant (SARS-CoV-2, UniProt P0DTC2 16-685). The experiment can be described thus: ELISA.

B1: Neumifil (HEX17: trimeric (hexavalent) form based on S. pneumoniae CBM40) (designed binder)
chain: GAMVIEKEDVETNASNGQRVDLSSELDKLKKLENATVHMEFKPDPKAPAFYNLFSVSSATKKDEYFTMAVYNNTATLEGRGSDGKQFYNNYNDAPLKVKPGQWNSVTFTVEKPTAELPKGRARLYVNGGLSRTSLRSGNFIKDMPDVTHVQIGATKRANNTVWGSNLQIRNLTVYNRALTPEEVQKRSGGGSGVIEKEDVETNASNGQRVDLSSELDKLKKLENATVHMEFKPDPKAPAFYNLFSVSSATKKDEYFTMAVYNNTATLEGRGSDGKQFYNNYNDAPLKVKPGQWNSVTFTVEKPTAELPKGRARLYVNGGLSRTSLRSGNFIKDMPDVTHVQIGATKRANNTVWGSNLQIRNLTVYNRALTPEEVQKRSGGSLGVPDFESDWFDVSSNSLYTLSHGLQRSPRRVVVEFARSSSPSTWNIVMPSYFNDGGHKGSGAQVEVGSLNIKLGTGAAVWGTGYFGGIDNSATTRFATGYYRVRAWI
With B1, the concentration giving a half-maximal response (EC50) came to 0.17 µg/mL.
